# According to patent publication US20090035322A1 (Regeneron, published 2009):
# Residue numbers refer to the chain shown, from its start.
# B1: 2B7-7 (antibody, V domains shown)
# VH: EVQLVESGGGLVQPGRSLRLSCAASGFTFRDYTMHWVRQGPGKGLEWVSGISWNSDYIGYADSVKGRFTISRDNAKNSLYLQMNSLRVEDTALYYCAKLSGTYRDYFYGVDVWGQGTTVTVSS
# VL: EIVLTQSPATLSLSPGERAALSCRASQSVSNYLAWYQQKPGQAPRLLIYDASNRATGIPARFSGSGSGTDFTLTISSLEPEDFAVYYCQQRSNWPLTFGGGTKVEIR
# notes: Fully human IgG, constant region not specified; also called 2B7-7N
# B2: 6B9-4 (antibody, V domains shown)
# VH: EEQLVESGGDLVQPGRSLRLSCAASGFTFHDYTMHWVRQAPGKGLEWVSGISWNSGSIGYADSVKGRFTISRDNAKNSLYLQMNSLRIEDTALYYCAKDPSYGSGSYYYYYGMDVWGQGTTVTVSS
# VL: B1 VL with A20T, N31S, A34V, K39R, D50E, P80S, R107K
# notes: Fully human IgG, constant region not specified; also called 6B9-4N
# B3: 3H7-6 (antibody, V domains shown)
# VH: EVQLVESGGGLVQPGRSLRLSCAASGFTFYDYAMHWVRQAPGKGLEWVSGISWNSGYIGYADSVKGRFTISRDNAKNSLYLQMNSLRAEDTALYYCAKDNSYGKFYYGLDVWGQGTTVTVSS
# VL: EIVMTQSPATLSVSPGERTTLSCRASQSVSSNLAWYLQKPGQAPRLLIYGASTRATGIPARFSGSGSGTEFILTISSLQSEDFAVYYCQQYNNWPITFGQGTRLEIK
# notes: Fully human IgG, constant region not specified; also called 3H7-6N
# B4: 10E3-17 (antibody, V domains shown)
# VH: EVQLVESGGGLVQPGRSLRLSCAASGFTFRDYAMHWVRQVPGKGLEWVSGISWNRGTIGYADSVKGRFTISRDNAKNSLFLQMNSLRADDTALYYCAKDHYYGSGSPYGMDVWGQGTTVTVSS
# VL: EIVLTQSPATLALSPGERATLSCRASQSVSKYLAWYQQKPGQAPRLLIYDASKRVTGIPGRLSGSGSGTDFTLTISSLEPEDFALYYCQQSSNWPITFGQGTRVEIK
# notes: Fully human IgG, constant region not specified; also called 10E3-17N
# B5: 9C11-14 (antibody, V domains shown)
# VH: QVQLVESGGDSVKPGGSLRLSCAASGFTFSDSYMTWIRQAPGKGLEWVSFISSSGSTIYYADSVKGRFTISRDNVKKSLYLQMNRLRAEDTAVYYCAREEPGNYVYYGMDVWGQGTTVTVSS
# VL: EIVVTQSPATLSLSPGERATLSCRTSQTTTSYLAWYRQKPGQAPRLLIYDASNRAAGIPARFSGSGSGTDFTLTINSLEPEDFAVYYCQLRTNWITFGQGTRLEIK
# notes: Fully human IgG, constant region not specified; also called 9C11-14N
# B6: 2C11-4 (antibody, V domains shown)
# VH: EVQLVESGGGLVQPGRSLRLSCAASGFTFRDYAMHWVRQGPGKGLEWVSGISWNTDYIGYADSVKGRFTISRDNAKNSLYLQMNSLRPEDTALYYCAKDARYGRDNYYGMDVWGQGTTVTVSS
# VL: EIVLTQSPATLSLSPGERATLSCRASQSVSRYLAWYQQKPGQAPRLLIHDASNRATGIPARFSGSGSGTDFTLTITSLEPEDFVVYYCQQRSDWPITFGQGTRLEIK
# notes: Fully human IgG, constant region not specified; also called 2C11-4N
# B7: 9H4-12 (antibody, V domains shown)
# VH: EVQLVESGGGLVQPGRSLRLSCAASGFTFDDYAMHWVRQVPGKGLEWVSGISWNSGSIGYADSVKGRFTISRDNAKNSLYLQMNSLRAEDTALYYCAKDMGYGNYYHYGMDVWGQGTTVTVSS
# VL: B6 VL with E1D, R31S, H49C, N53H, G57R, T76S, V84A, D93N
# notes: Fully human IgG, constant region not specified; also called 9H4-12N
# Biological target: T1, mutant human CD20 #5 (P172S) (human, UniProt P11836 1-297)
# T1 construct: Stably expressed on MG87 cells
# T1 sequence: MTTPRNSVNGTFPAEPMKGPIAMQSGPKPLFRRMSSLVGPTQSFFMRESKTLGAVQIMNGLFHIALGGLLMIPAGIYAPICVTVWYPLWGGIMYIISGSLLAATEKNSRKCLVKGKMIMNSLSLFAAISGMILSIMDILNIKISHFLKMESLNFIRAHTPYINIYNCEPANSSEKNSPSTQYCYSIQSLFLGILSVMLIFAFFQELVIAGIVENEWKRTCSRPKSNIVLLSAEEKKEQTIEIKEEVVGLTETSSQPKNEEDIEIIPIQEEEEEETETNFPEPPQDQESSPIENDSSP
# Experiment: FACS, mutant-hCD20 MG87 cells; 100%=best antibody
# Protocol: (§1) Briefly, approximately 1×10⁶ cells from each stably transfected cell line expressing a mutant human CD20 were collected and incubated with each anti-human antibody, at 10 μg/ml, on ice for 1 hr, followed by incubation with APC-conjugated goat anti-human IgG (Jackson Immunolabs), at 10 μg/ml, on ice for 45 min. For each antibody, binding to each mutant human CD20 was assessed by flow cytometry.
row,Binder,Percent of Binding to Mutant Human CD20 [%]
1,B1,88
2,B2,67
3,B3,45
4,B4,49
5,B5,29
6,B6,30
7,B7,2

# Biological target: T2, mutant human CD20 #3 (A170S, P172S) (human, UniProt P11836 1-297)
# T2 construct: Stably expressed on MG87 cells
# T2 chain: T1 sequence with A170S
# Experiment: FACS, mutant-hCD20 MG87 cells; 100%=best antibody
# Protocol: as §1
row,Binder,Percent of Binding to Mutant Human CD20 [%]
1,B1,87
2,B2,64
3,B3,43
4,B4,6
5,B5,0
6,B6,11
7,B7,0

# Biological target: T3, mutant human CD20 #8 (Y77F, N163D, N166D) (human, UniProt P11836 1-297)
# T3 construct: Stably expressed on MG87 cells
# T3 chain: T1 sequence with Y77F, N163D, N166D, S172P
# Experiment: FACS, mutant-hCD20 MG87 cells; 100%=best antibody
# Protocol: as §1
row,Binder,Percent of Binding to Mutant Human CD20 [%]
1,B1,0
2,B2,0
3,B3,0
4,B4,0
5,B5,100
6,B6,0
7,B7,0

# Biological target: T4, mutant human CD20 #9 (N163D, N166D) (human, UniProt P11836 1-297)
# T4 construct: Stably expressed on MG87 cells
# T4 chain: T1 sequence with N163D, N166D, S172P
# Experiment: FACS, mutant-hCD20 MG87 cells; 100%=best antibody
# Protocol: as §1
row,Binder,Percent of Binding to Mutant Human CD20 [%]
1,B1,4
2,B2,3
3,B3,3
4,B4,4
5,B5,100
6,B6,3
7,B7,4

# Biological target: T5, mutant human CD20 #10 (A157V) (human, UniProt P11836 1-297)
# T5 construct: Stably expressed on MG87 cells
# T5 sequence: T1 sequence with A157V, S172P
# Experiment: FACS, mutant-hCD20 MG87 cells; 100%=best antibody
# Protocol: as §1
row,Binder,Percent of Binding to Mutant Human CD20 [%]
1,B1,83
2,B2,75
3,B3,80
4,B4,87
5,B5,83
6,B6,68
7,B7,52

# Biological target: T6, mutant human CD20 #6 (Y77F, N166D) (human, UniProt P11836 1-297)
# T6 construct: Stably expressed on MG87 cells
# T6 chain: T1 sequence with Y77F, N166D, S172P
# Experiment: FACS, mutant-hCD20 MG87 cells; 100%=best antibody
# Protocol: as §1
row,Binder,Percent of Binding to Mutant Human CD20 [%]
1,B1,12
2,B2,1
3,B3,0
4,B4,1
5,B5,87
6,B6,1
7,B7,1

# Biological target: T7, human CD20 (human, UniProt P11836 1-297)
# T7 sequence: T1 sequence with S172P
# Experiment: cell-based or functional assay
Binder,"CDC, Daudi EC50 [nM]","CDC, RL EC50 [nM]"
B1,0.24,1.03
B2,0.34,0.97
B3,0.44,3.66
B4,0.59,7.8
B5,7.14,12
B6,> 50,5.19
B7,51.1,29.6
